Legend:
Assay in all cases: cell-based or functional assay
[1] = biological target: murine glutamine synthetase N-terminal mutant W60A N61A D63A (mutGS-NT1) (murine) (UniProt P15105)
[2] = biological target: murine glutamine synthetase N-terminal mutant W60A N61A D63R S66A (mutGS-NT4) (murine) (UniProt P15105)
[3] = biological target: murine glutamine synthetase N-terminal mutant W60A N61A D63A S66A (mutGS-NT2) (murine) (UniProt P15105)
[4] = biological target: murine glutamine synthetase N-terminal mutant W60A N61A D63A S66A D76A (mutGS-NT3) (murine) (UniProt P15105)

Measured: recovery of viability of CHO-K1 GS knockout pools in glutamine-free medium

murine glutamine synthetase C-terminal mutant E134A E136A E196A E203A (mutGS-CT1) (from UniProt P15105 1-373)
90 % viability: all assays above

murine glutamine synthetase C-terminal mutant N248A H253A N255A (mutGS-CT2) (from UniProt P15105 1-373)
90 % viability: all assays above
